Test results published in article PMC3024946, “Hydroxyproline-containing collagen analogs trigger the release and activation of collagen-sequestered proMMP-2 by competition with prodomain-derived peptide P33-42” (Fibrogenesis & Tissue Repair, 2011).

Legend:
Parameters in all cases: species or system human
[1] = tested on: ProMMP-9; test: Solid-phase binding of [125I]-proMMP-9 to immobilized collagens/peptides (microwells); conditions: ProMMP-9, 2 ng/well; coated wells; 4°C, 2 h; residual radioactivity; mean ± SD, at least five experiments in triplicate
Experimental: (§1) Human recombinant proMMPs and in vitro activated MMPs were obtained from Invitek and were labeled with the [^125I]-Bolton-Hunter reagent according to the manufacturer's instructions (PerkinElmer, Rodgau, Germany) before the buffer was exchanged for phosphate-buffered saline (PBS) with 0.05% (vol/vol) Tween 20 by gel filtration as described previously. Specific radioactivity for [^125I]-MMPs was 3-9 × 10^4 cpm/ng. Precipitation with 10% (wt/vol) trichloroacetic acid and 200 μg of BSA recovered 96% to 100% of protein-bound radioactivity. Aliquots of labeled MMPs were frozen and stored at -80°C. […]
(§2) The following collagen analogs and control peptides were synthesized as described previously: (GPO)10, H-Gly-Cys-Hyp-(Gly-Pro-Hyp)10-Gly-Cys-Hyp-Gly-NH2; (GPP)10, H-Gly-Cys-Pro-(Gly-Pro-Pro)10-Gly-Cys-Pro-Gly-NH2; and GAP, H-Gly-Ala-Cys-(Gly-Ala-Pro)5-Gly-Phe-Hyp-Gly-Glu-Arg-(Gly-Ala-Pro)5-NH2. […] Graphs were calculated from the primary data using a custom fitting program written by D.A. Slatter (Department of Biochemistry, University of Cambridge, Cambridge, UK [48]) to model different possible transitions. […]
(§3) ProMMP-2 and proMMP-9 or actMMP-2 and actMMP-9 were bound to nitrocellulose and polystyrene-immobilized native collagens, CI chains, CB peptides or structural analogs. […] Membranes were washed again and air-dried, and bound MMP was monitored by autoradiography. […]

[2] = tested on: ProMMP-2; test: Solid-phase binding of [125I]-proMMP-2 to immobilized collagens/peptides (microwells); conditions: ProMMP-2, 2 ng/well; coated wells; 4°C, 2 h; residual radioactivity; mean ± SD, at least five experiments in triplicate
Experimental: as §1, §2, §3

[3] = tested on: ActMMP-9; test: Solid-phase binding of [125I]-actMMP-9 to immobilized collagens/peptides (microwells); conditions: ActMMP-9, 2 ng/well; coated wells; 4°C, 2 h; residual radioactivity; mean ± SD, at least five experiments in triplicate
Experimental: as §1, §2, §3

[4] = tested on: ActMMP-2; test: Solid-phase binding of [125I]-actMMP-2 to immobilized collagens/peptides (microwells); conditions: ActMMP-2, 2 ng/well; coated wells; 4°C, 2 h; residual radioactivity; mean ± SD, at least five experiments in triplicate
Experimental: as §1, §2, §3

B1: CIII: native human collagen type III (protein)
chain: QQEAVEGGCSHLGQSYADRDVWKPEPCQICVCDSGSVLCDDIICDDQELDCPNPEIPFGECCAVCPQPPTAPTRPPNGQGPQGPKGDPGPPGIPGRNGDPGIPGQPGSPGSPGPPGICESCPTGPQNYSPQYDSYDVKSGVAVGGLAGYPGPAGPPGPPGPPGTSGHPGSPGSPGYQGPPGEPGQAGPSGPPGPPGAIGPSGPAGKDGESGRPGRPGERGLPGPPGIKGPAGIPGFPGMKGHRGFDGRNGEKGETGAPGLKGENGLPGENGAPGPMGPRGAPGERGRPGLPGAAGARGNDGARGSDGQPGPPGPPGTAGFPGSPGAKGEVGPAGSPGSNGAPGQRGEPGPQGHAGAQGPPGPPGINGSPGGKGEMGPAGIPGAPGLMGARGPPGPAGANGAPGLRGGAGEPGKNGAKGEPGPRGERGEAGIPGVPGAKGEDGKDGSPGEPGANGLPGAAGERGAPGFRGPAGPNGIPGEKGPAGERGAPGPAGPRGAAGEPGRDGVPGGPGMRGMPGSPGGPGSDGKPGPPGSQGESGRPGPPGPSGPRGQPGVMGFPGPKGNDGAPGKNGERGGPGGPGPQGPPGKNGETGPQGPPGPTGPGGDKGDTGPPGPQGLQGLPGTGGPPGENGKPGEPGPKGDAGAPGAPGGKGDAGAPGERGPPGLAGAPGLRGGAGPPGPEGGKGAAGPPGPPGAAGTPGLQGMPGERGGLGSPGPKGDKGEPGGPGADGVPGKDGPRGPTGPIGPPGPAGQPGDKGEGGAPGLPGIAGPRGSPGERGETGPPGPAGFPGAPGQNGEPGGKGERGAPGEKGEGGPPGVAGPPGGSGPAGPPGPQGVKGERGSPGGPGAAGFPGARGLPGPPGSNGNPGPPGPSGSPGKDGPPGPAGNTGAPGSPGVSGPKGDAGQPGEKGSPGAQGPPGAPGPLGIAGITGARGLAGPPGMPGPRGSPGPQGVKGESGKPGANGLSGERGPPGPQGLPGLAGTAGEPGRDGNPGSDGLPGRDGSPGGKGDRGENGSPGAPGAPGHPGPPGPVGPAGKSGDRGESGPAGPAGAPGPAGSRGAPGPQGPRGDKGETGERGAAGIKGHRGFPGNPGAPGSPGPAGQQGAIGSPGPAGPRGPVGPSGPPGKDGTSGHPGPIGPPGPRGNRGERGSEGSPGHPGQPGPPGPPGAPGPCCGGVGAAAIAGIGGEKAGGFAPYYG
Binding of [125I]-MMPs [1]: 45.0 ± 2.0 % of maximum control
Binding of [125I]-MMPs [2]: 40.0 ± 5.0 % of maximum control
Binding of [125I]-MMPs [3]: 5.0 ± 0.4 % of maximum control
Binding of [125I]-MMPs [4]: 14.3 ± 5.8 % of maximum control
